From patent publication US20100190693 come the findings set out here.

For series [1], the target named is T1, GST-TORC2 (aa 161-181), wild-type (UniProt Q53ET0).
T1 sequence: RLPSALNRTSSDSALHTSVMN

Series [2] has as its target GST-TORC2 (aa 161-181) Ser171Ala (UniProt Q53ET0).

GST-TORC2 (aa 161-181) Ser171Ala, sequence (Q53ET0 whole entry S171A, looked up, the tested form may be a part): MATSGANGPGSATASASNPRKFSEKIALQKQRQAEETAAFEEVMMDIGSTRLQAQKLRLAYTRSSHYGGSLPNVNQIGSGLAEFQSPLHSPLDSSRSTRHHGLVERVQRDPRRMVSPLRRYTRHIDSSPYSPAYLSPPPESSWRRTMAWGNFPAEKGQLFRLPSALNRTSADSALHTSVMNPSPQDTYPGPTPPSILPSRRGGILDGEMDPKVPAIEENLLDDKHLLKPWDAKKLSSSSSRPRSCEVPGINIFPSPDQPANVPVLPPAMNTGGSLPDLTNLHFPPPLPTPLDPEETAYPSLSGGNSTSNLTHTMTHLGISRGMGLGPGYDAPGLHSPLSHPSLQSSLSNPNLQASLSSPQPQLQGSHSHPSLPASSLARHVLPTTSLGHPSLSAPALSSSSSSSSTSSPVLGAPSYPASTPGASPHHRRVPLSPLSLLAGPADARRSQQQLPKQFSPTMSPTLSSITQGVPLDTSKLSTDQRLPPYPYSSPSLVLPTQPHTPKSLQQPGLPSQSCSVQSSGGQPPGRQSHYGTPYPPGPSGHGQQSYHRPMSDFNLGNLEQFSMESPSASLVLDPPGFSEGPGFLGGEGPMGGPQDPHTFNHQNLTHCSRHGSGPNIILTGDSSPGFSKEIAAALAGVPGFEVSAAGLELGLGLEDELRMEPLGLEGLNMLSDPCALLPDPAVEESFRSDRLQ

In the case of “purified AMPK (AMP-activated protein kinase) (Upstate Biotech)”, the “in vitro kinase assay, 32P incorporation” value in series [1] is listed as “Activated AMPK phosphorylated wild-type, but not Ser171Ala mutant GST-TORC2 (161-181) peptide in vitro”; in series [2], “Activated AMPK phosphorylated wild-type, but not Ser171Ala mutant GST-TORC2 (161-181) peptide in vitro”.
